Where a chain is given by its changes, count along the chain named. In names and notes the source's numbering stands. Blank lines part the entries; values can stand above or below the binder they belong to.
How the values were obtained:
Test in all cases: SEC
[1] = target: (CENP-A/H4)2 heterotetramer (human, UniProt P49450 1-140; P62805 1-103)
[2] = target: CENP-A^H115A/L128A/H4 heterodimer (human, UniProt P49450 1-140; P62805 1-103, H115A | L128A)
(CENP-A^S68Q/H4)2 = (CENP-A^S68Q/H4)2 (human, UniProt P49450 1-140; P62805 1-103, S68Q)
Chain of (CENP-A^S68Q/H4)2 (P49450 whole entry S68Q, one chain of several): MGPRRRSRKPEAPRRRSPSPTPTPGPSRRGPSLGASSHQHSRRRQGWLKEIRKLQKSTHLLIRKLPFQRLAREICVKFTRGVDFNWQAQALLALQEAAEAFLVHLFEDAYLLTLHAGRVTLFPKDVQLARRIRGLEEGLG

Chain of (CENP-A/H4)2 heterotetramer (P49450 whole entry, one chain of several): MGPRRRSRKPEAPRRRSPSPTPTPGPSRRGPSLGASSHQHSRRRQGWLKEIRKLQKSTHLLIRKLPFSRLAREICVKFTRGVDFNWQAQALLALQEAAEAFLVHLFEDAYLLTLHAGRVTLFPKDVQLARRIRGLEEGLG
Chain of CENP-A^H115A/L128A/H4 heterodimer (P49450 whole entry H115A/L128A, one chain of several): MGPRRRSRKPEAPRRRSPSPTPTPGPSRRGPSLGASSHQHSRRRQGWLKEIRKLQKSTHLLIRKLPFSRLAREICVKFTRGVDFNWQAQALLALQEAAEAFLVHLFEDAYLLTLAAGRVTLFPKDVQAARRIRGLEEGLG

binding result [1]: binds
binding result [2]: binds
binding result ((CENP-A^S68Q/H4)2): binds
B1: MBP-HJURP^1–80 (domain or fragment)
chain: MLGTLRAMEGEDVEDDQLLQKLRASRRRFQRRMQRLIEKYNQPFEDTPVVQMATLTYETPQGLRIWGGRLIKERNEGEIQ

binding result [1]: binds
B2: MBP-HJURP^1–80/W66A (domain or fragment)
chain: B1 chain with W66A

binding result [1]: binds
B3: MBP-HJURP^1–62 (domain or fragment)
chain: MLGTLRAMEGEDVEDDQLLQKLRASRRRFQRRMQRLIEKYNQPFEDTPVVQMATLTYETPQG

Source: paper PMC3353549 (Developmental Cell, 2012)
